# Experimental data: patent CN110577594A (UNIV NORTHWEST A&F, dated 2019)
# T1: 金黄色葡萄球菌肠毒素B (Staphylococcus aureus, UniProt P01552 28-266)
# T1 sequence: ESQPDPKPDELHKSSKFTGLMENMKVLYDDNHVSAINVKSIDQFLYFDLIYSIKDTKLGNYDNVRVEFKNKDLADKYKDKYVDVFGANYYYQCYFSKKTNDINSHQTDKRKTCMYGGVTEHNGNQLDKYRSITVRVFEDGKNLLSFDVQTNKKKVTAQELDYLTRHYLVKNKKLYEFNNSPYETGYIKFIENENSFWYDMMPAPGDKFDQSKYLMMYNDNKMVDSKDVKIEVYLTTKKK
# B1: 金黄色葡萄球菌肠毒素A纳米抗体A21 (VHH)
# VHH: ESGGGSVQAGGSLRLSCAASRNTYSYCSMGWYRQAPGKERELVSSIKSDDRTVYADSVKGRFTISRGNAKNTVHLLMNSLKPEDTAMYYCTFRCLERSGGETRYWGQGTQVTVS
# notes: also called Clone A21; A21克隆
# Key:
# 金黄色葡萄球菌肠毒素B = target: T1, 金黄色葡萄球菌肠毒素B; test: direct ELISA, antigen coated, HRP-conjugated nanobody
# 金黄色葡萄球菌表面蛋白A = target: T2, 金黄色葡萄球菌表面蛋白A (Staphylococcus aureus, UniProt P38507 37-477); test: direct ELISA on coated whole S. aureus (ATCC25923, ATCC29213, ATCC26111), HRP-conjugated nanobody
# T2 construct: whole, on cells; also called 葡萄球菌蛋白A; spA
binder,measurement,setting,value
B1,binding result,金黄色葡萄球菌肠毒素B,no binding (tested: 500ng/mL)
same,binding result,金黄色葡萄球菌表面蛋白A,no binding (tested: 10 7 cfu/mL)
